Test results reported in patent US20130236458A1 (AbbVie / Abbott, published 2013).

Columns and labels:
Recombinant Human IL-13 [1] = molecular target: T1, Recombinant Human IL-13 (human, UniProt P35225 35-146, limits assumed); test: cell-based or functional assay
Recombinant Human IL-13 [2] = molecular target: T1, Recombinant Human IL-13; test: SPR (Biacore)
Procedure, shortened: (§1)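 Antibodies or DVD-Ig captured on anti-mouse IgG (Fcγ) CM5 surface; antigen injected at 10–200 nM in HBS-EP, pH 7.4, 25 °C, 25 µL/min. kon and koff from global 1:1 Langmuir fit; KD = koff/kon.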

Recombinant Human IL-17 [3] = molecular target: T2, Recombinant Human IL-17 (human, UniProt Q16552 20-155, limits assumed); test: SPR (Biacore)
T2 construct: bought reagent; also called IL-17A
T2 sequence (looked up): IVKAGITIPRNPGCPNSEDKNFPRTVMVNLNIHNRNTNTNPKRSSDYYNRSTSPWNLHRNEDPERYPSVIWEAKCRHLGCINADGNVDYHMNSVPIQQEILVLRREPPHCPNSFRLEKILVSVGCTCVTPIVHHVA
Procedure, shortened: as §1

Recombinant Human IL-17 [4] = molecular target: T2, Recombinant Human IL-17; test: cell-based or functional assay

T1 sequence (P35225 35-146 limits assumed): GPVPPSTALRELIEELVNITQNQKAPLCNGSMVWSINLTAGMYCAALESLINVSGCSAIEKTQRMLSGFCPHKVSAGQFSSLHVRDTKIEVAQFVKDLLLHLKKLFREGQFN

Row | Binder | C-Terminal VD IL13 Neutralization Assay IC50 (Recombinant Human IL-13 [1]) [nM] | Kd (Recombinant Human IL-13 [2]) [nM] | koff (Recombinant Human IL-13 [2]) [s⁻¹] | kon (Recombinant Human IL-13 [2]) [M⁻¹ s⁻¹] | Kd (Recombinant Human IL-17 [3]) [nM] | koff (Recombinant Human IL-17 [3]) [s⁻¹] | kon (Recombinant Human IL-17 [3]) [M⁻¹ s⁻¹] | N-Terminal VD IL17 Neutralization Assay IC50 (Recombinant Human IL-17 [4]) [nM] | N-Terminal VD IL13 Neutralization Assay IC50 (Recombinant Human IL-13 [1]) [nM] | C-Terminal VD IL17 Neutralization Assay IC50 (Recombinant Human IL-17 [4]) [nM]
1 | DVD2185 (bispecific antibody, DVD-Ig; also called DVD2185H; DVD2185L) VH: EVQLVQSGAEVKKPGSSVKVSCKASGYTFTDYEIHWVRQAPGQGLEWMGVNDPESGGTFYNQKFDGRVTLTADESTSTAYMELSSLRSEDTAVYYCTRYSKWDSFDGMDYWGQGTTVTVSSASTKGPEVQLVQSGAEVKKPGASVKVSCKASGYTFTSYWMHWVRQAPGQGLEWIGNINPKGGSNIYNEKFQGRVTMTRDTSISTAYMELSRLRSDDTAVYYCARLDYFGDSFDLWGQGTTVTVSS VL: DIQMTQSPSSLSASVGDRVTITCRASSGIISYIDWFQQKPGKAPKRLIYATFDLASGVPSRFSGSGSGTDYTLTISSLQPEDFATYYCRQVGSYPETFGQGTKLEIKRTVAAPDIQMTQSPSSLSASVGDRVTITCRASQGIRNYLNWYQQKPGKAPKLLIYYASNLEVGVPSRFSGSGSGTDYTLTISSLQPEDFATYYCQQDNRFPYTFGGGTKVEIKR | 1.25 | < 0.0091 | < 1e-06 | 110000 | 0.0089 | 1.5e-05 | 1.7e+06 | 0.0013 | – | –
2 | DVD2189 (bispecific antibody, DVD-Ig; also called DVD2189H; DVD2189L) VH: EVQLVQSGAEVKKPGSSVKVSCKASGYTFTDYEIHWVRQAPGQGLEWMGVNDPESGGTFYNQKFDGRVTLTADESTSTAYMELSSLRSEDTAVYYCTRYSKWDSFDGMDYWGQGTTVTVSSASTKGPSVFPLAPEVQLVQSGAEVKKPGASVKVSCKASGYTFTSYWMHWVRQAPGQGLEWIGNINPKGGSNIYNEKFQGRVTMTRDTSISTAYMELSRLRSDDTAVYYCARLDYFGDSFDLWGQGTTVTVSS VL: DIQMTQSPSSLSASVGDRVTITCRASSGIISYIDWFQQKPGKAPKRLIYATFDLASGVPSRFSGSGSGTDYTLTISSLQPEDFATYYCRQVGSYPETFGQGTKLEIKRTVAAPDIQMTQSPSSLSASVGDRVTITCRASQGIRNYLNWYQQKPGKAPKLLIYYASNLEVGVPSRFSGSGSGTDYTLTISSLQPEDFATYYCQQDNRFPYTFGGGTKVEIKR | 0.172 | 0.094 | 3.9e-05 | 410000 | < 0.0004 | < 1e-06 | 2.5e+06 | 0.0017 | – | –
3 | DVD2187 (bispecific antibody, DVD-Ig; also called DVD2187H; DVD2187L) VH: EVQLVQSGAEVKKPGSSVKVSCKASGYTFTDYEIHWVRQAPGQGLEWMGVNDPESGGTFYNQKFDGRVTLTADESTSTAYMELSSLRSEDTAVYYCTRYSKWDSFDGMDYWGQGTTVTVSSASTKGPEVQLVQSGAEVKKPGASVKVSCKASGYTFTSYWMHWVRQAPGQGLEWIGNINPKGGSNIYNEKFQGRVTMTRDTSISTAYMELSRLRSDDTAVYYCARLDYFGDSFDLWGQGTTVTVSS VL: DIQMTQSPSSLSASVGDRVTITCRASSGIISYIDWFQQKPGKAPKRLIYATFDLASGVPSRFSGSGSGTDYTLTISSLQPEDFATYYCRQVGSYPETFGQGTKLEIKRTVAAPSVFIFPPDIQMTQSPSSLSASVGDRVTITCRASQGIRNYLNWYQQKPGKAPKLLIYYASNLEVGVPSRFSGSGSGTDYTLTISSLQPEDFATYYCQQDNRFPYTFGGGTKVEIKR | 0.811 | 0.072 | 2.1e-05 | 290000 | < 0.00038 | < 1e-06 | 2.6e+06 | 0.0016 | – | –
4 | DVD2177 (bispecific antibody, DVD-Ig; also called DVD2177H; DVD2177L) VH: EVQLVQSGAEVKKPGSSVKVSCKASGGSFGGYGIGWVRQAPGQGLEWMGGITPFFGFADYAQKFQGRVTITADESTTTAYMELSGLTSDDTAVYYCARDPNEFWNGYYSTHDFDSWGQGTTVTVSSASTKGPSVFPLAPEVQLVQSGAEVKKPGASVKVSCKASGYTFTTYGVSWVRQAPGQGLEWMGEIYPGNYNTYYNEKFRGRVTMTTDTSTSTAYMELRSLRSDDTAVYYCARWRTSYFSDYGYFDYWGQGTTVTVSS VL: EIVLTQSPDFQSVTPKEKVTITCRASQDIGSELHWYQQKPDQPPKLLIKYASHSTSGVPSRFSGSGSGTDFTLTINGLEAEDAGTYYCHQTDSLPYTFGPGTKVDIKRTVAAPDVVMTQSPLSLPVTLGQPASISCRSSQSLVHSHGNTYLHWYQQRPGQSPRLLIYTVSNRFSGVPDRFSGSGSGTDFTLKISRVEAEDVGVYYCSQSTHVPYTFGGGTKVEIKR | 0.155 | < 0.0091 | < 1e-06 | 110000 | ≤ 0.0043 | ≤ 1e-05 | 2.5e+06 | 0.0101 | – | –
5 | DVD2179 (bispecific antibody, DVD-Ig; also called DVD2179H; DVD2179L) VH: EVQLVQSGAEVKKPGESVKISCKASGGSFRSYGISWVRQAPGQGLEWMGGITHFFGITDYAQKFQGRVTITADESTTTAYMELSGLTSDDTAVYYCAREPNDFWNGYYDTHDFDSWGQGTTVTVSSASTKGPEVQLVQSGAEVKKPGASVKVSCKASGYTFTTYGVSWVRQAPGQGLEWMGEIYPGNYNTYYNEKFRGRVTMTTDTSTSTAYMELRSLRSDDTAVYYCARWRTSYFSDYGYFDYWGQGTTVTVSS VL: EIVLTQSPDFQSVTPKEKVTITCRASQNIGSELHWYQQKPDQSPKLLIKYASHSISGVPSRFSGSGSGTDFTLTINGLEAEDAATYYCHQSDTLPHTFGQGTKVDIKRTVAAPDVVMTQSPLSLPVTLGQPASISCRSSQSLVHSHGNTYLHWYQQRPGQSPRLLIYTVSNRFSGVPDRFSGSGSGTDFTLKISRVEAEDVGVYYCSQSTHVPYTFGGGTKVEIKR | 0.916 | ≤ 0.0036 | ≤ 1e-06 | 280000 | 0.039 | 6.4e-05 | 1.7e+06 | 0.0097 | – | –
6 | DVD2183 (bispecific antibody, DVD-Ig; also called DVD2183H; DVD2183L) VH: EVQLVQSGAEVKKPGESVKISCKASGGSFRSYGISWVRQAPGQGLEWMGGITHFFGITDYAQKFQGRVTITADESTTTAYMELSGLTSDDTAVYYCAREPNDFWNGYYDTHDFDSWGQGTTVTVSSASTKGPSVFPLAPEVQLVQSGAEVKKPGASVKVSCKASGYTFTTYGVSWVRQAPGQGLEWMGEIYPGNYNTYYNEKFRGRVTMTTDTSTSTAYMELRSLRSDDTAVYYCARWRTSYFSDYGYFDYWGQGTTVTVSS VL: EIVLTQSPDFQSVTPKEKVTITCRASQNIGSELHWYQQKPDQSPKLLIKYASHSISGVPSRFSGSGSGTDFTLTINGLEAEDAATYYCHQSDTLPHTFGQGTKVDIKRTVAAPDVVMTQSPLSLPVTLGQPASISCRSSQSLVHSHGNTYLHWYQQRPGQSPRLLIYTVSNRFSGVPDRFSGSGSGTDFTLKISRVEAEDVGVYYCSQSTHVPYTFGGGTKVEIKR | 0.086 | < 0.0042 | < 1e-06 | 240000 | 0.015 | 3.6e-05 | 2.3e+06 | 0.0125 | – | –
7 | DVD2190 (bispecific antibody, DVD-Ig; also called DVD2190H; DVD2190L) VH: EVQLVQSGAEVKKPGASVKVSCKASGYTFTSYWMHWVRQAPGQGLEWIGNINPKGGSNIYNEKFQGRVTMTRDTSISTAYMELSRLRSDDTAVYYCARLDYFGDSFDLWGQGTTVTVSSASTKGPEVQLVQSGAEVKKPGSSVKVSCKASGGSFGGYGIGWVRQAPGQGLEWMGGITPFFGFADYAQKFQGRVTITADESTTTAYMELSGLTSDDTAVYYCARDPNEFWNGYYSTHDFDSWGQGTTVTVSS VL: DIQMTQSPSSLSASVGDRVTITCRASQGIRNYLNWYQQKPGKAPKLLIYYASNLEVGVPSRFSGSGSGTDYTLTISSLQPEDFATYYCQQDNRFPYTFGGGTKVEIKRTVAAPEIVLTQSPDFQSVTPKEKVTITCRASQDIGSELHWYQQKPDQPPKLLIKYASHSTSGVPSRFSGSGSGTDFTLTINGLEAEDAGTYYCHQTDSLPYTFGPGTKVDIKR | – | 0.021 | 5.7e-05 | 2.6e+06 | 0.038 | 3.4e-06 | 89000 | – | 0.087 | 0.061
8 | DVD2175 (bispecific antibody, DVD-Ig; also called DVD2175H; DVD2175L) VH: EVQLVQSGAEVKKPGSSVKVSCKASGGSFGGYGIGWVRQAPGQGLEWMGGITPFFGFADYAQKFQGRVTITADESTTTAYMELSGLTSDDTAVYYCARDPNEFWNGYYSTHDFDSWGQGTTVTVSSASTKGPEVQLVQSGAEVKKPGASVKVSCKASGYTFTTYGVSWVRQAPGQGLEWMGEIYPGNYNTYYNEKFRGRVTMTTDTSTSTAYMELRSLRSDDTAVYYCARWRTSYFSDYGYFDYWGQGTTVTVSS VL: EIVLTQSPDFQSVTPKEKVTITCRASQDIGSELHWYQQKPDQPPKLLIKYASHSTSGVPSRFSGSGSGTDFTLTINGLEAEDAGTYYCHQTDSLPYTFGPGTKVDIKRTVAAPSVFIFPPDVVMTQSPLSLPVTLGQPASISCRSSQSLVHSHGNTYLHWYQQRPGQSPRLLIYTVSNRFSGVPDRFSGSGSGTDFTLKISRVEAEDVGVYYCSQSTHVPYTFGGGTKVEIKR | 0.115 | < 0.019 | < 1e-06 | 52000 | 0.0021 | 5.4e-06 | 2.7e+06 | 0.0089 | – | –
9 | DVD2181 (bispecific antibody, DVD-Ig; also called DVD2181H; DVD2181L) VH: EVQLVQSGAEVKKPGESVKISCKASGGSFRSYGISWVRQAPGQGLEWMGGITHFFGITDYAQKFQGRVTITADESTTTAYMELSGLTSDDTAVYYCAREPNDFWNGYYDTHDFDSWGQGTTVTVSSASTKGPEVQLVQSGAEVKKPGASVKVSCKASGYTFTTYGVSWVRQAPGQGLEWMGEIYPGNYNTYYNEKFRGRVTMTTDTSTSTAYMELRSLRSDDTAVYYCARWRTSYFSDYGYFDYWGQGTTVTVSS VL: EIVLTQSPDFQSVTPKEKVTITCRASQNIGSELHWYQQKPDQSPKLLIKYASHSISGVPSRFSGSGSGTDFTLTINGLEAEDAATYYCHQSDTLPHTFGQGTKVDIKRTVAAPSVFIFPPDVVMTQSPLSLPVTLGQPASISCRSSQSLVHSHGNTYLHWYQQRPGQSPRLLIYTVSNRFSGVPDRFSGSGSGTDFTLKISRVEAEDVGVYYCSQSTHVPYTFGGGTKVEIKR | 0.04 | < 0.012 | < 1e-06 | 82000 | 0.016 | 4.2e-05 | 2.6e+06 | 0.0097 | – | –
